Target: BclA N-terminal 35 amino acids fused to eGFP (Bacillus anthracis) (UniProt Q81JD7)
Assay: FRET or BRET

BxpB-mCherry fusion (from UniProt S5W424 1-167) (natural protein)
fold decrease of the eGFP signal (FRET), against BclA NTD-eGFP alone: 2.1 fold
percent of FRET positive spores: 14.8%
